Experimental findings from PMC5527654 are described below.

The target of the first series is T1, 6xHis-PA3225 (Pseudomonas aeruginosa UCBPP-PA14) (UniProt A0A0H2ZDR5).
T1 sequence: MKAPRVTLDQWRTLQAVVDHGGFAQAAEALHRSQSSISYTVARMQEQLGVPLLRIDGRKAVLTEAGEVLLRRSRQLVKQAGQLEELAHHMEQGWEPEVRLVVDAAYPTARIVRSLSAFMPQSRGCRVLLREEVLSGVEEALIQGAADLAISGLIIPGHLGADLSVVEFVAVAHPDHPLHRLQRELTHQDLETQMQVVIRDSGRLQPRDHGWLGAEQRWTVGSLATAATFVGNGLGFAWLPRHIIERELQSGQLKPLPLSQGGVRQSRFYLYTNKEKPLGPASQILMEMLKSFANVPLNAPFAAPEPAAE
In words: EMSA.
Turning to “ATGGCTGGCGTTCGTTGCATAGCGTTGTCCTCATGAGCGAAAGCGGCCGATGCAGCGTGAAGGCGCTGCACCGGCTCGAAGAAGGCAGGCAAAATACTTACATTCATAGGTGTTTGTAAACGTCCGAAAGC (double strand) [Cy5-PmexAB-oprM probe 4]”, the binding result is listed as “no binding”.
Regarding “TAGTTGACTGGATCAACCACATTTACATTAGGTTTACTCGGCCAAACCAATGAACTACCCCGTGAATCCCGACCTGATGCCCGCGCTGATGGCGGTCTTCCAGCATGTACGGACGCGCATCCAGAGCGAGCTCGATT (double strand) [Cy5-PmexAB-oprM probe 2]”, the binding entry was “no binding”.
Still for that read-out and setting: in the case of “ATGTGGTTGATCCAGTCAACTATTTTGCTTATTTTAGTTGACCTTATCAACCTTGTTTCAGGTTCTGAATATGGGCCATGGCGCCGGGTGGATAACCGGCCATCGAGCTAAAACGTTTCAGGTGTTTTCACGCGAGGCTTTCGGACGTTTACA (double strand) [Cy5-PmexAB-oprM probe 3]” it was “binds”.

The target of a further series is T1, 6xHis-PA3225 (Pseudomonas aeruginosa UCBPP-PA14). In words: competition.
For the sequence “ATGTGGTTGATCCAGTCAACTATTTTGCTTATTTTAGTTGACCTTATCAACCTTGTTTCAGGTTCTGAATATGGGCCATGGCGCCGGGTGGATAACCGGCCATCGAGCTAAAACGTTTCAGGTGTTTTCACGCGAGGCTTTCGGACGTTTACA (double strand) [PmexAB-oprM probe 3 unlabeled]”, the binding result is “binds”.
The same measure, in the same setting: the same measure for “ATGGCTGGCGTTCGTTGCATAGCGTTGTCCTCATGAGCGAAAGCGGCCGATGCAGCGTGAAGGCGCTGCACCGGCTCGAAGAAGGCAGGCAAAATACTTACATTCATAGGTGTTTGTAAACGTCCGAAAGC (double strand) [PmexAB-oprM probe 4 unlabeled]”: “no binding”; for “TAGTTGACTGGATCAACCACATTTACATTAGGTTTACTCGGCCAAACCAATGAACTACCCCGTGAATCCCGACCTGATGCCCGCGCTGATGGCGGTCTTCCAGCATGTACGGACGCGCATCCAGAGCGAGCTCGATT (double strand) [PmexAB-oprM probe 2 unlabeled]”: “no binding”.
